This note sets out measurements from the DeepSol protein solubility set.

The nature of this data set: soluble on expression in E. coli; label from the status in PepcDB or PDB records.
For “MSLKKDTSEQSVEQSEVGLSLEELIRRGARDLIERAIEVEVQQLLAEYENVRMLGGSRAVVRNGYLPAREVLTAVGNVEVRVPKVRDRSGAGVKFNSALVPPYVRRSARVSAALPWLYLKGISTGDMREALTVLLGDEAKGLSPNVVSRLKTEWASDYAGWMKRDLSGSRYVYWWADGVHTSLRGEDDARQCLLVVIGVRLDGTKELVTVGDGHRESKASWLELLRDLKARGLEVGPRLAVGDGALGFWGALDELYPETRRQRCWVHKSANVLNALNALPKSLQAKAKAQLHEIWMAPTRAAAVSAFERFVECYQAKYPKAADKLVRDRDALLAFYDFPAEHWIHLRTTNPIESTFATVRHRTTRTKNCVSRSSFLGLAFKLVQEAEKSWRRIRGVERIAELMGGVVFKDGEPVKDEGHHHHHH”, the “soluble on expression in E. coli” value is given as “soluble”.

Take “MSLKKETLSDRLNKAMELAGMSQGALAKASGVAQPTIWRLTSGNARGSTKIVEIANALGVNSEWLSTGIGPMKKDGTTPINASPSSNTFKIDILDLEVSAGPGVINREFVEILRSVEYSQDDARHMFDGRKAENIRIINVRGDSMSGTIEPGDLLFVDVSIKNFDGDGIYAFLYDDTAHVKRLQKMKDKLLVISDNKSYSAWDPIERDEMNRVFVFGKVIGSMPQTYRKHGEGHHHHHH”: the “soluble on expression in E. coli” value is “soluble”.

Consider “MSLKKIQFFDTTLRDGEQTPGVNFDVKEKIQIALQLEKLGIDVIEAGFPISSPGDFECVKAIAKAIKHCSVTGLARCVEGDIDRAEEALKDAVSPQIHIFLATSDVHMEYKLKMSRAEVLASIKHHISYARQKFDVVQFSPEDATRSDRAFLIEAVQTAIDAGATVINIPDTVGYTNPTEFGQLFQDLRREIKQFDDIIFASHCHDDLGMATANALAAIENGARRVEGTINGIGERAGNTALEEVAVALHIRKDFYQAETNIVLNQFKNSSDLISRLSGMPVPRNKAVIGGNAYAHESGIHQDGVLKNPDTYEIITPALVGVDKNSLPLGKLSGKHAFNTRMEEMGYTLTEQEQKDAFKRFKQLADAKKEVTEEDLHALILGQSSESADDFELKHLQVQYVTGGVQGAIVRIEERDGALVEDAATGSGSIEAIYNTINRLMKQDIELTDYRIQAITAGQDAQAEVHVVIKNDKGAVFHGIGIDFDVLTASAKAYLQASGKSKTASKQADFEEVKEGHHHHHH”, for which the “soluble on expression in E. coli” value was “not soluble”.

Consider “MSLKKLDYHFHSHFSADSEELPRKHVTEAIAHGLEEICFTEHRDFYFPGMDFSLNLPEYFQEINRLQAEFKDKIKIKIGLEMGIDLRFKSEINQFIDSAPFDFVIASVHEIGDIEVYDGTEFYLQKIKEEAQREYLLACLDVVQNFENYNSFGHLDYVARYGPYTDKSIKFAENREILFEILRALASKEKALEINTRLFDDPKTEQFYSDLLINFKKLGGKFITLGTDSHIAKRDWLSIHKARTLIKKAGFHELATFSGMKIDKNKKSIKEGHHHHHH”, for which the “soluble on expression in E. coli” value is reported as “soluble”.

As to “MSLKKQPGFTQDYLLSKATTLPDKTRLERAVEPLCARHPGECGILALDNSLDAFAARYRLTEMAARTLDVQYYIWEDDMSGRLLFSVLLSAAKRGVHVRLLLDDNNTPGLDDTLRLLDSHPNIEVRLFNPFSFRTLRALGYLTDFARLNRRMHNKSYTADGVVTLVGGRNIGDAYFGAGEEPLFSDLDVMAIGPVVNDVANDFERYWRCSSVSTLQQVLSLSEQELTQRIELPESWYNDEITRRYLHKLETSQFMADLDCGTLPLIWAKTRLLSDDPSKGEGKAQRHSLLPQRLFDVMGSPTERIDIISAYFVPTRAGVAQLLNLVRKGVKIAILTNSLAANDVAVVHAGYARWRKKLLRYGVELYELKPTREHETAVHDRGLTGNSGSSLHAKTFSIDGSKVFIGSLNFDPRSTLLNTEMGFVIESETLATLIHKRFTQSQRDAAWQLRLDRWGRINWIDRQQEEEKVLKKEPATRFWQRVLVRLAAILPVEWLLEGHHHHHH”, the “soluble on expression in E. coli” value was “soluble”.

Regarding “MSLKLPGKIAIMGGGSWATAIAKMCLAQEDSINWYMRRDDRIADFKRLGHNPAYLTGVKFDTKRITFSSNINDVVKESDTLIFVTPSPYLKAHLKKLKTKIKDKFIITAIKGIVPDDNVIVSEYFTKEYGVPPENIAVLAGPCHAEEVALERLSYLTIACPDKDKARIFARRLGSSFIKTSVSDDVAGIEYSSVLKNVYAIAAGICSGLKYGDNFQAVLISNAIQEMNRFLNTVHPLNRNVDDSVYLGDLLVTGYSNFSRNRTFGSMIGKGYSVKSAQIEMEMIAEGYYGTKCIKEINKHHHVNMPILDAVYNILYERISPMIEIKLLTDSFREGHHHHHH”, the “soluble on expression in E. coli” value is given as “soluble”.
